# Measured values as given in patent publication US20230018670A1 (WIN THERAPEUTICS, published 2023).
# Several values for one entry are separate records, joined by “and”; a condition that tells them apart may be missing. Identical values can stand only once.
# T1: B7H3 (antigen of the 'B7H3 Octet' value)
# T1 construct: antigen of the Octet measurement
# T1 sequence (Q5ZPR3 whole entry, species assumed, looked up): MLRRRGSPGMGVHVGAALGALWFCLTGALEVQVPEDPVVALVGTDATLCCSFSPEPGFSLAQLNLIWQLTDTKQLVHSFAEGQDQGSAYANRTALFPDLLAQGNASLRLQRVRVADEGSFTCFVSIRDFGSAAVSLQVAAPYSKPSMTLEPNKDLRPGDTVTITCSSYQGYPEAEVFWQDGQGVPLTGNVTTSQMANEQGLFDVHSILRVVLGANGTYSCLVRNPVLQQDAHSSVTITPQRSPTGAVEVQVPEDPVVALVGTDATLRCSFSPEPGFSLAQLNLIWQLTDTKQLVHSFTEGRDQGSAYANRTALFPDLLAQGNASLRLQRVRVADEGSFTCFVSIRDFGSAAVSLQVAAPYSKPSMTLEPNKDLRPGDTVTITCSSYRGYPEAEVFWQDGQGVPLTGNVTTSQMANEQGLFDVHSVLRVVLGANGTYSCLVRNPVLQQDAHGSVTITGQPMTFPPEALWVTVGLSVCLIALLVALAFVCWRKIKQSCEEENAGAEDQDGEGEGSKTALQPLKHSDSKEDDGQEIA
# T2: mB7H3 (endogenous mouse B7H3 on B16 and B78 cells) (mouse, UniProt Q8VE98)
# T2 construct: B78 also carries GD2; also called murine B7H3
# T2 sequence (receptor, looked up): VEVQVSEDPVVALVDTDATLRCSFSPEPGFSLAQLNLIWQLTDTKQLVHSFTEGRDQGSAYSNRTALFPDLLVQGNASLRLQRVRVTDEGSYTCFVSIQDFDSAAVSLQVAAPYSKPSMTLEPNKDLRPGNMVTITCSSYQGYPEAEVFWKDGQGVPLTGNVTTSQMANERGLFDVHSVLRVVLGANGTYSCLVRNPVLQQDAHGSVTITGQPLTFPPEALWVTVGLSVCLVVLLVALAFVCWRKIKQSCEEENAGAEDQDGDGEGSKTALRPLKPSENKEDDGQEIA
# Legend:
# [1] = biological target: T3, B7 Homolog 3 (B7H3) on B78 melanoma tumor cells; test: cell binding, RFU, B7H3 B78 cells (GD2 and human B7H3); both arms can bind
# T3 construct: whole, on cells; In the PET study, tumours that were B7H3-positive and GD2-negative were also used; also called CD276; Cluster of Differentiation 276
# [2] = biological target: T1, B7H3 (antigen of the 'B7H3 Octet' value); test: Octet, monovalent affinity of the B7H3 arm; construct measured and form of B7H3 not given
# [3] = biological target: T2, mB7H3 (endogenous mouse B7H3 on B16 and …); test: flow cytometry on B16 cells (no GD2, mouse B7H3), GAH PE; anti-GD2 antibody as control
EC50 [1],Kd [2] [nM],Binder,binding result [3]
0.35 nM and 0.357 nM,2.4,"INV721 (bivalent bispecific anti-B7H3 x anti-GD2 antibody) (bispecific antibody, V domains shown, 89Zr-radiolabelled in the PET and biodistribution studies. An a-fucosylated version is used in FIG. 66., 89Zr-labelled in the in vivo PET study; also called I7-01/GD2-5/7; I7-01/GD2-7) VL 1: DIQMTQSPSSLSASVGDRVTITCRASQSVSSAVAWYQQKPGKAPKLLIYSASSLYSGVPSRFSGSRSGTDFTLTISSLQPEDFATYYCQQSGRSLYTFGQGTKVEIK VH 1: EVQLVESGGGLVQPGGSLRLSCAASGFTFSTYYIHWVRQAPGKGLEWVAWIHPSGKYTYYADSVKGRFTISADTSKNTAYLQMNSLRAEDTAVYYCARHYQVGAMDYWGQGTLVTVSS VL 2: DIQMTQSPSSLSASVGDRVTITCRSSQSLVHRNGNTYLHWYQQKPGKAPKLLIHKVSNRFSGVPSRFSGSGSGTDFTLTISSLQPEDFATYYCSQSTHVPPLTFGQGTKVEIK VH 2: EVQLVESGGGLVQPGGSLRLSCAASGSSFTGYNMNWVRQAPGKGLEWVAAIDPYYGGTYYADSVKGRFTISADTSKNTAYLQMNSLRAEDTAVYYCASGMEYWGQGTLVTVSS",–
–,–,"Invenra GD2-5 (antibody, V domains shown, anti-GD2 antibody; stands here only as a control on B16 cells; also called GD2-05; anti-GD2 monoclonal antibody GD2-5) VH: EVQLVESGGGLVQPGGSLRLSCAASGSSFTGYNMNWVRQAPGKGLEWVAAIDPYYGGTYYADSVKGRFTISADTSKNTAYLQMNSLRAEDTAVYYCASGMEYWGQGTLVTVSS VL: DIQMTQSPSSLSASVGDRVTITCRSSQSLVHRNGNTYLHWYQQKPGKAPKLLIHKVSNRFSGVPSRFSGSGSGTDFTLTISSLQPEDFATYYCSQSTHVPPLTFGQGTKVEIK",no binding (tested: 1 ug antibody per million cells)
